For one sequence, binding results are on record in publication PMC10112228.

The data set deals with His-CcpA (nonphosphorylated) (Streptococcus pneumoniae D39) (UniProt A0A0H2ZQ65). The data set is described as follows: EMSA. (In general: Mobility shift assays separate free from complexed probe on a gel.)

Take “CTTTCTGTGAACGTGATTTTTTAAAACGTCTACTCATGATTAACACCTATACATTGAACATCTTACGATTATATCACTTTTTTACGGTAATGTCTACACCTTTTTTCACTATCTGCATCTTTAAGTATCTTAGTAGACTTCCCGCGAACCAAAAATATAGTAAAATGAAATAAGAACATGACAAATTGATCAGGACAGTCAAATCGTTTTCTAACAATATTTTAGAAGCAGATGTGTACTATTCTAGTTTCAATATAATATAGTACACAATGTGGTATAATCTTTTT (double strand) [Pcps2A (-250/+35)]”: the binding result was “binds”.
